Source: patent publication US20240116985A1 (published 2024)
Starred links: 1 amine or outer side, 2 acyl side, 3 side chain; linkers in the order of their positions; H or OH if unused. Positions of bridges follow the written chain, without caps; N, C: chain ends. Non-standard residues stand in square brackets, D forms with d. Primed or numbered codes have the meaning given here. *: point of attachment. PyrS2(3) = (S)-3-amino-1-((pent-4-en-1-yloxy)carbonyl)pyrrolidine-3-carboxylic acid, stapling residue, C=CCCCOC(=O)N1CC[C@@](N[*:1])(C(=O)[*:2])C1; PyrS2″ = (S)-3-amino-1-((pent-4-en-1-yloxy)carbonyl)pyrrolidine-3-carboxylic acid (stapling residue), C=CCCCOC(=O)N1CC[C@@](N[*:1])(C(=O)[*:2])C1; (Tfp)GAbu = (S)-2-amino-4-((carboxymethyl)(3,3,3-trifluoropropyl)amino)butanoic acid, O=C([C@H](CCN(CCC(F)(F)F)CC(=O)[*:3])N[*:1])[*:2]; B5(23) = 2-amino-2-(pent-4-en-1-yl)hept-6-enoic acid (2,2-bis(4-pentenyl)glycine), stitching residue, C=CCCCC(CCCC=C)(N[*:1])C(=O)[*:2]; B5(4) = 2,2-bis(4-pentenyl)glycine = 2-amino-2-(pent-4-en-1-yl)hept-6-enoic acid (stitching residue), C=CCCCC(CCCC=C)(N[*:1])C(=O)[*:2]; PyrS″ = (S)-1-((allyloxy)carbonyl)-3-aminopyrrolidine-3-carboxylic acid (stapling residue), C=CCOC(=O)N1CC[C@@](N[*:1])(C(=O)[*:2])C1; TfeGA = (S)-2-amino-3-((carboxymethyl)(2,2,2-trifluoroethyl)amino)propanoic acid, O=C([C@H](CN(CC(=O)[*:3])CC(F)(F)F)N[*:1])[*:2]; PyrS2 = (S)-3-amino-1-((pent-4-en-1-yloxy)carbonyl)pyrrolidine-3-carboxylic acid, C=CCCCOC(=O)N1CC[C@@](N[*:1])(C(=O)[*:2])C1; PyrS1 = (S)-3-amino-1-((but-3-en-1-yloxy)carbonyl)pyrrolidine-3-carboxylic acid, C=CCCOC(=O)N1CC[C@@](N[*:1])(C(=O)[*:2])C1; Az = 1-((allyloxy)carbonyl)-3-aminoazetidine-3-carboxylic acid (stapling residue), C=CCOC(=O)N1CC(N[*:1])(C(=O)[*:2])C1; (Bn)GAbu = (S)-2-amino-4-(benzyl(carboxymethyl)amino)butanoic acid, O=C([C@H](CCN(CC(=O)[*:3])Cc1ccccc1)N[*:1])[*:2]; PyrS = (S)-1-((allyloxy)carbonyl)-3-aminopyrrolidine-3-carboxylic acid, C=CCOC(=O)N1CC[C@@](N[*:1])(C(=O)[*:2])C1; B5(19) = 2-amino-2-(pent-4-en-1-yl)hept-6-enoic acid (bis(4-pentenyl)glycine), C=CCCCC(CCCC=C)(N[*:1])C(=O)[*:2]; HypEs5 = (2R,4S)-4-(pent-4-enoyloxy)pyrrolidine-2-carboxylic acid, C=CCCC(=O)O[C@H]1C[C@H](C(=O)[*:2])N([*:1])C1; GA = (S)-2-amino-3-((carboxymethyl)amino)propanoic acid, O=C([C@H](CNCC(=O)[*:3])N[*:1])[*:2]; Phe(4-tetrazol-5-yl) = N[C@@H](Cc1ccc(-c2nnn[nH]2)cc1)C(=O)O; Phe(2-Cl) = N[C@@H](Cc1ccccc1Cl)C(=O)O; Bta = N[C@@H](Cc1csc2ccccc12)C(=O)O; αAllylPro = C=CC[C@@]1(C(=O)O)CCCN1; tBuAla = CC(C)(C)C[C@H](N)C(=O)O; 3Thi = N[C@@H](Cc1ccsc1)C(=O)O; Pfb = not defined here; Ms = CS(=O)(=O)*

T1: B-cat-Halo (UniProt P35222 1-781)
T1 sequence (looked up): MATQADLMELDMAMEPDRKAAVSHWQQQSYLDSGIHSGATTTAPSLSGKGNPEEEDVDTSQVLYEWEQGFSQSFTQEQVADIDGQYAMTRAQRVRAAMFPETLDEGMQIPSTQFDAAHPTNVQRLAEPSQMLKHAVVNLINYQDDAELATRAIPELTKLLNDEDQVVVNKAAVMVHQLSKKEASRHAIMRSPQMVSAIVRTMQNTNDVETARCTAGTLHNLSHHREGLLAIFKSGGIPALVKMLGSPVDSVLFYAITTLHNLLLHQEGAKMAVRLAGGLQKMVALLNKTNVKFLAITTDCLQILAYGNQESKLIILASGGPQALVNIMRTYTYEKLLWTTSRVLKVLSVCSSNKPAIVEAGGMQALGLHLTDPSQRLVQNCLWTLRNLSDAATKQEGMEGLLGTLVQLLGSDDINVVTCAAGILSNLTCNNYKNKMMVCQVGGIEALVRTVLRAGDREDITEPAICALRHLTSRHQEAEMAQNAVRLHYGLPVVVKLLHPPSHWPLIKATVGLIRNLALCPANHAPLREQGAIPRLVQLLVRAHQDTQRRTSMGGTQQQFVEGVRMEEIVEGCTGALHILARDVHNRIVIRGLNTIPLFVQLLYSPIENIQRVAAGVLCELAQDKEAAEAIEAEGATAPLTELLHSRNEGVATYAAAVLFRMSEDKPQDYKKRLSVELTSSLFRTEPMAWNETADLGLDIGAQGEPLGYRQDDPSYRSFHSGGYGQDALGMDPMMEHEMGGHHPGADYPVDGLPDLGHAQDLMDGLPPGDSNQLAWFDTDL

T2: B-cat-Halo (beta-catenin HaloTag construct expressed in HEK293 cells) (UniProt P35222 1-781)
T2 sequence (looked up): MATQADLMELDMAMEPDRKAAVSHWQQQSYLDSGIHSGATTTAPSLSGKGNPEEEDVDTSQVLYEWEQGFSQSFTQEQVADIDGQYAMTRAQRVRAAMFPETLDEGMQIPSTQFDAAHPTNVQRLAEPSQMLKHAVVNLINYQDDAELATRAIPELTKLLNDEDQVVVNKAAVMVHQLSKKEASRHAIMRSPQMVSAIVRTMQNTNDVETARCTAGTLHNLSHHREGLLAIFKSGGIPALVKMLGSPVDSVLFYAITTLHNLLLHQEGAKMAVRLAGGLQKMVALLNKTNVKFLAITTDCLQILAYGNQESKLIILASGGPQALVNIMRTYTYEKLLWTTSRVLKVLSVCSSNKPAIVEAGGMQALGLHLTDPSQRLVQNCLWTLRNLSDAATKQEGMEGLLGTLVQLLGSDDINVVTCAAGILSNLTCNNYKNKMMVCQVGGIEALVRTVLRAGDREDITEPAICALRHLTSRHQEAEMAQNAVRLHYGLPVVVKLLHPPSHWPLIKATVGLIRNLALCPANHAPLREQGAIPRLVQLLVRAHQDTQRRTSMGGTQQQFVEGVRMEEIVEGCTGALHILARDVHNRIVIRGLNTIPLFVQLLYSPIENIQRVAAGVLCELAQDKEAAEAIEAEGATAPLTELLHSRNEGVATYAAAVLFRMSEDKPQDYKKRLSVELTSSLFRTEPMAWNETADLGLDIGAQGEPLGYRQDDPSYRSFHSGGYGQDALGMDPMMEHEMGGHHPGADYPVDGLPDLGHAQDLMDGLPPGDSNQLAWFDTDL


Target: T1, B-cat-Halo
Experiment: cell-based or functional assay

NanoBRET Abs IC50 [µM] | Binder
> 20 | Ac-[HypEs5]D[tBuAla][B5(23)]DDAAFN[PyrS2][3Thi][Bta]Q-NH2 (staple 1-4, 4-11) [I-1573]
11.7 | Ac-[αAllylPro]D[tBuAla][B5(23)]D[GA](Pfb)AAFN[PyrS2][Phe(2-Cl)][Bta]Q-NH2 (staple 1-4, 4-11; reading uncertain; also: printed as Ac-PL3-Asp-Npg-B5-Asp-[Pfb]GA-Ala-Ala-Phe-Asn-PyrS2-2C1F-BztA-Gln-NH2) [I-1571]
> 20 | Ac-[αAllylPro]D[tBuAla][B5(23)]D[GA]AAFN[PyrS2][Phe(2-Cl)][Bta]Q-NH2 (staple 1-4, 4-11) [I-1572]
> 20 | Ac-[αAllylPro]D[tBuAla][B5(23)]D[3TzF]AAFN[PyrS2(3)][3Thi][Bta]Q-NH2 (staple 1-4, 4-11) [I-1578]
> 20 | Ac-[αAllylPro]D[tBuAla][B5(23)]NQAAFN[PyrS2][3Thi][Bta]Q-NH2 (staple 1-4, 4-11; not fully specified; printed as Ac-PL3-Asp-Npg-B5-Asn-Gln-Ala-Ala-Phe-Asn-PyrS2-3Thi-BztA-Gln-NH2) [I-1567]
> 20 | Ac-[αAllylPro]D[tBuAla][B5(23)]D[Phe(4-tetrazol-5-yl)]AAFN[PyrS2(3)][3Thi][Bta]Q-NH2 (staple 1-4, 4-11) [I-1579]
> 20 | Ms-[HypEs5]D[tBuAla][B5(23)]DDAAFN[PyrS2][3Thi][Bta]Q-NH2 (staple 1-4, 4-11; not fully specified; printed as MeSO2-HypEs5-Asp-Npg-B5-Asp-Asp-Ala-Ala-Phe-Asn-PyrS2-3Thi-BztA-Gln-NH2) [I-1574]

Target: T2, B-cat-Halo (beta-catenin HaloTag …)
Experiment: cell-based or functional assay

NanoBRET Abs IC50 [µM] | Binder
14.6 | Ac-[αAllylPro]D[tBuAla][B5(4)]D[(Tfp)GAbu]AAFL[PyrS2″][3Thi][Bta]Q-NH2 (staple 1-4, 4-11) [I-1839]
> 20 | Ac-[αAllylPro]D[tBuAla][B5(4)]DDAAFL[Az][3Thi][Bta]Q-NH2 (staple 1-4, 4-11) [I-1828]
18.8 | Ac-[αAllylPro]D[tBuAla][B5(4)]D[(Bn)GAbu]AAFL[PyrS2″][3Thi][Bta]Q-NH2 (staple 1-4, 4-11) [I-1834]
> 20 | Ac-[αAllylPro]D[tBuAla][B5(19)]DDAAFN[PyrS1][3Thi][Bta]Q-NH2 (staple 1-4, 4-11; also: staple olefins reduced to CH2-CH2) [I-1821]
> 20 | Ac-[αAllylPro]D[tBuAla][B5(19)]DDAAFN[PyrS][3Thi][Bta]Q-NH2 (staple 1-4, 4-11; also: staple olefins reduced to CH2-CH2) [I-1823]
> 20 | Ac-[αAllylPro]D[tBuAla][B5(4)]DDAAFL[PyrS″][3Thi][Bta]Q-NH2 (staple 1-4, 4-11; also: staple -CH=CH- reduced to -CH2-CH2- in both staples) [I-1824]
6.9 | Ac-[αAllylPro]D[tBuAla][B5(4)]D[TfeGA]AAFL[PyrS2″][Phe(2-Cl)][Bta]Q-NH2 (staple 1-4, 4-11) [I-1833]
